{
  "source": "patent US20250312438A1",
  "about": "(published 2025)",
  "key": {"[1]": {"target": "HLA-DRA*01:01 W168R / HLA-DRB1*04:01 F31V/H33N", "assay": "BLI"}, "[2]": {"target": "HLA-DRA*01:01 No mut. / HLA-DRB1*04:01 F31V/H33N", "assay": "BLI"}, "[3]": {"target": "HLA-DRA*01:01 W168R / HLA-DRB1*04:01 No mut.", "assay": "BLI"}, "[4]": {"target": "HLA-DRA*01:01 W168R / HLA-DRB1*04:01 F31I/H33N", "assay": "BLI"}, "[5]": {"target": "HLA-DRA*01:01 No mut. / HLA-DRB1*04:01 F31I/H33N", "assay": "BLI"}, "[6]": {"target": "T1, recombinant HLA-DR (DRA*01:01/DRB1*04:01) with covalently attached Influenza Hemagglutinin (HA) peptide (human;Influenza)", "assay": "BLI"}, "[7]": {"target": "T1, recombinant HLA-DR …", "assay": "BLI", "remark": "listed apart in the source"}, "BJAB cells": {"target": "BJAB cells (human, UniProt P01903 26-254)", "sequence (P01903 whole entry)": "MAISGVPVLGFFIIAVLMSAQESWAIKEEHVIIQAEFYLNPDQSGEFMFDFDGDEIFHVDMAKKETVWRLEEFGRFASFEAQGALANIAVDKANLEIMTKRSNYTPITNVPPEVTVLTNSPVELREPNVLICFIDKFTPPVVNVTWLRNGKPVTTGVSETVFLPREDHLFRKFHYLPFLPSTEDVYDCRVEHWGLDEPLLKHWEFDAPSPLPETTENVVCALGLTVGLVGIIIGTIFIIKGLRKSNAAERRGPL", "assay": "flow"}, "[8]": {"target": "T1, recombinant HLA-DR …", "assay": "BLI", "remark": "listed apart in the source"}},
  "note": "Like-named read-outs stand apart in the source and are kept apart here.",
  "data": [
    {"binder": "44H10 (antibody, V domains shown) VH: QVQLKESGPGLVAPSQSLSITCTVSGFSLTSYGVHWVRQPPGKGLEWLGVIWAGGSINYNSALMSRLSISKDNFKSQVFLKMSSLQTDDTAMYYCARAYGDYVHYAMDYWGQGTSVTASS VL: DIQMTQSPSSLSASLGQRVSLTCRASQEISGYLTWLQQKPDGTIKRLVYAASTLDSGVPKRFSGSRSGSDYSLTISSLESEDFADYYCLQYTNYPLTFGAGTKLELKR", "values": [
      {"measurement": "Kd", "setting": "[1]", "value": 0.2, "unit": "nM"},
      {"measurement": "Kd", "setting": "[2]", "value": 0.4, "unit": "nM"},
      {"measurement": "Kd", "setting": "[3]", "value": 2.8, "unit": "nM"},
      {"measurement": "Kd", "setting": "[4]", "value": 0.2, "unit": "nM"},
      {"measurement": "Kd", "setting": "[5]", "value": 0.5, "unit": "nM"}
    ]},
    {"binder": "chimeric human IgG1 anti-HLA-DR 44H10 antibody (antibody, V domains shown) VH: QVQLKESGPGLVAPSQSLSITCTVSGFSLTSYGVHWVRQPPGKGLEWLGVIWAGGSINYNSALMSRLSISKDNFKSQVFLKMSSLQTDDTAMYYCARAYGDYVHYAMDYWGQGTSVTASS VL: DIQMTQSPSSLSASLGQRVSLTCRASQEISGYLTWLQQKPDGTIKRLVYAASTLDSGVPKRFSGSRSGSDYSLTISSLESEDFADYYCLQYTNYPLTFGAGTKLELKR", "values": [
      {"measurement": "Kd", "setting": "[6]", "value": 199, "unit": "nM"},
      {"measurement": "Kd", "setting": "[7]", "value": 1.5, "unit": "nM"}
    ]},
    {"binder": "V17 (antibody, V domains shown) VH: QVTLKESGPVLVKPTETLTLTCTVSGFSLTSYGVHWIRQPPGKALEWLAVIWAGGSISYSTSLMSRLTISKDTSKSQVVLTMTNMDPVDTATYYCARAYGDYVHYAMDYWGQGTLVTVSS VL: DIQMTQSPSSLSASVGDRVTITCRASQEISGYLTWLQQKPGKAPKLLIYAASTLDSGVPSRFSGSGSGTDFTLTISSLQPEDFATYYCLQYTNYPLTFGQGTKLEIK", "values": [
      {"measurement": "EC50", "setting": "BJAB cells", "value": 5.02, "unit": "µg/mL"}
    ]},
    {"binder": "V14 with the V71K and F78V mutations in the VH (antibody, V domains shown) VH: QVQLQESGPGLVKPSETLSLTCTVSGFSLTSYGVHWIRQPPGKGLEWIGVIWAGGSINYNSALMSRVTISKDTSKNQVSLKLSSVTAADTAVYYCARAYGDYVHYAMDYWGQGTLVTVSS VL: DIQMTQSPSSLSASVGDRVTITCRASQEISGYLTWLQQKPGKAPKLLIYAASTLDSGVPSRFSGSGSGTDFTLTISSLQPEDFATYYCLQYTNYPLTFGQGTKLEIK", "values": [
      {"measurement": "Kd", "setting": "[8]", "value": 206, "unit": "nM"}
    ]},
    {"binder": "V20 (K60 back-mutation) (antibody, V domains shown) VH: QVTLKESGPVLVKPTETLTLTCTVSGFSLTSYGVHWIRQPPGKALEWLAVIWAGGSISYSTSLMSRLTISKDTSKSQVVLTMTNMDPVDTATYYCARAYGDYVHYAMDYWGQGTLVTVSS VL: DIQMTQSPSSLSASVGDRVTITCRASQEISGYLTWLQQKPGKAPKLLIYAASTLDSGVPKRFSGSGSGTDFTLTISSLQPEDFATYYCLQYTNYPLTFGQGTKLEIK", "values": [
      {"measurement": "EC50", "setting": "BJAB cells", "value": 2.21, "unit": "µg/mL"}
    ]},
    {"binder": "V19 (R66 back-mutation) (antibody, V domains shown) VH: QVTLKESGPVLVKPTETLTLTCTVSGFSLTSYGVHWIRQPPGKALEWLAVIWAGGSISYSTSLMSRLTISKDTSKSQVVLTMTNMDPVDTATYYCARAYGDYVHYAMDYWGQGTLVTVSS VL: DIQMTQSPSSLSASVGDRVTITCRASQEISGYLTWLQQKPGKAPKLLIYAASTLDSGVPSRFSGSRSGTDFTLTISSLQPEDFATYYCLQYTNYPLTFGQGTKLEIK", "values": [
      {"measurement": "EC50", "setting": "BJAB cells", "value": 2.02, "unit": "µg/mL"}
    ]},
    {"binder": "humanized 44H10 variant V21 (antibody, V domains shown) VH: QVTLKESGPVLVKPTETLTLTCTVSGFSLTSYGVHWIRQPPGKALEWLAVIWAGGSISYSTSLMSRLTISKDTSKSQVVLTMTNMDPVDTATYYCARAYGDYVHYAMDYWGQGTLVTVSS VL: DIQMTQSPSSLSASVGDRVTITCRASQEISGYLTWLQQKPGKAPKLLIYAASTLDSGVPKRFSGSRSGTDFTLTISSLQPEDFATYYCLQYTNYPLTFGQGTKLEIK", "values": [
      {"measurement": "Kd", "setting": "[6]", "value": 221, "unit": "nM"},
      {"measurement": "Kd", "setting": "[8]", "value": 157, "unit": "nM"}
    ]}
  ]
}
